Assay results reported in publication PMC11489326, “Characterization of lignin-degrading enzyme PmdC, which catalyzes a key step in the synthesis of polymer precursor 2-pyrone-4,6-dicarboxylic acid” (The Journal of Biological Chemistry, 2024).

Substrate: O=C(O)c1ccc(O)c(O)c1
Assay: purified protein
Type: biochemical, Comamonas testosteroni
Settings: pH 7.5, room temperature, anaerobically purified enzyme, dithionite-treated, O2 co-substrate

B1: PmdAB (protocatechuate 4,5-dioxygenase) (Comamonas testosteroni) (protein)
chain 1: MARITASVFTSHVPAIGAAMDMGKTQEAYWAPLFKGYDFSRQWMKDNKPDVIFLVYNDHATAFSLDCIPTFAIGTAAEFQPADEGWGPRPVPKVVGHPDLASHIAQSVIQQDFDLTIVNKMDVDHGLTVPLSLMCGEQDPKTGSWPCPVIPFAVNVVQYPVPTGQRCFNLGRAIRKAVESYDQDINVHIWGTGGMSHQLQGARAGLINKEWDNQFLDLLVENPHGLAQMPHIDYVREAGSEGIELVMWLIARGAMSDVDGPAPLPKVAHRFYHVPASNTAVGHLILENQ
chain 2: MALEKPYLDVPGTIIFDAEQSRKGYWLNQFCMSLMKAENRERFRADERAYLDEWAMTEEQKQAVLARDLNWCMRTGGNIYFLAKIGATDGKSFQQMAGSMTGMTEEEYRAMMMGGGRSAEGNRYVGEDGDAQAHHQPQGSAGNQNKEGN
notes: full-length, codon-optimized, N-terminal His6-PmdA co-expressed with PmdB in E. coli BL21(DE3); purified anaerobically; alpha2beta2 heterotetramer, nonheme Fe(II)
Work on B1 yielded a Km of 33.00 ± 12.0 µM, a kcat of 107 ± 7.5 s⁻¹ and a kcat/Km of 3.3e+06 M⁻¹ s⁻¹.
